Changes are numbered by the printed parent chain.
Experiments:
[1] = test system: T1, GST-PT8-CTS517A
T1 sequence: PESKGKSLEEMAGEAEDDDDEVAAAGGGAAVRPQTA

[2] = test system: T2, GST-PT8-CTS517 (not phosphorylated)
T2 sequence: T1 sequence with A12S

[3] = test system: T3, GST-PT8-CTS512A
T3 sequence: T1 sequence with S7A, A12S

GST-CK2α3
in vitro phosphorylation assay ([γ-32P]ATP) [1]: Mutation of S517, but not S512, prevented phosphorylation of PT8-CT | in vitro phosphorylation assay ([γ-32P]ATP) [2]: the PT8-CT was phosphorylated by the catalytic subunit CK2 α3 | in vitro phosphorylation assay ([γ-32P]ATP) [3]: Mutation of S517, but not S512, prevented phosphorylation of PT8-CT
